Source: the DeepSol protein solubility set

Experiment: soluble on expression in E. coli; label from the status in PepcDB or PDB records

Row | Sequence | soluble on expression in E. coli
1 | MGSDKIHHHHHHMMAQFEYSTLAHPQDIQQLEHILEQCFISALGGEEAYINMIGVENFRIIRRLEQVAGGLATLDMGQWWGGQRVPMTGIAVVGIAPEYRGSGAAIALMQHTLKELYDRGIAISALYPAVQSLYRKVGYEQGGSWCIWEIATQNIQVREQPLPLELVASINHEVFHELYQQQARQTHGYLDRHPAIWERIIQPNDKEIVYTYLIGTKDQPQGYIIFTQERTNNGEILFVKDWVLTTVAAAQTFWSFLASHRSQIQQVRWKSSAIDSLTLLLPEQTAKIQTTSRWLLRIIDVVKALELRGYPPGIQAELHLEIQDNLLTENNGKFILSVANGRGEVTKGGKGELQLDIRELAPLYTSLFTPYHLQIAGKLNGTETAILTATQIFAGASPWMADFF | not soluble
2 | MSAVMATYLLHDETDIRKKAEGIALGLTIGTWTDLPALEQEQLRKHKGEVVAIEELGESERVNAYFGKRLKRAIVKIAYPTVNFSADLPALLVTTFGKLSLDGEVRLLDLEFPDEWKRQFPGPRFGIDGIRDRVGVHNRPLLMSIFKGMIGRDLAYLTSELKKQALGGVDLVKDDEILFDSELLPFEKRITEGKAALQEVYEQTGKRTLYAVNLTGKTFALKDKAKRAAELGADVLLFNVFAYGLDVLQALREDEEIAVPIMAHPAFSGAVTPSEFYGVAPSLWLGKLLRLAGADFVLFPSPYGSVALEREQALGIARALTDDQEPFARAFPVPSAGIHPGLVPLIIRDFGLDTIVNAGGGIHGHPDGAIGGGRAFRAAIDAVLAGRPLRAAAAENEALQKAIDRWGVVEVEA | soluble
3 | MGSDKIHHHHHHMDIRSLKMYLHLCDSLHFAKTAEQSHVSPSTLSRALQRLEDEVGSKLFDRDNRSVTITHAGVEFKRFAEQTLSEWTQLRSRIDPSQQFLRGNLNLYCSVTAAYSHLPALLDRFRREHPHVDINLNTGDPANAVNQIQKNRADIAIIALPEAFPSSLHFTPIDKVPISVIAPTIQCQVQQWVSQAKIDWAKLPYIVPDHGPGRKRIDLWFKQMGIKPNIYAQVSGQEAIVSMVALGCGVGISPEAVIHNSPVRDRIQTLASPIPIPPFELGCCCKEKRTNDPIIRAFLDII | not soluble
4 | MRVLITGGNRGLGLQLVKVFHENGHIIYPLVRTEVAVTQLKQMFSCRCFPILADLAADESTEQIKKQLEEYTEYMDLVINNAGITGKETEVLHTNSEELTDLFNIHCLGVIRAVKGTYMALAKSDHPRIINVSSRLGSLHKMANKEFPQGHFSYSYRIAKAAQNMLTLCLQQEFENKGISVTAIHPGKLKTEIGAFDANMTPAEGTKNIYDWVIDSNEDLSGQFIEPGVGEIKW | not soluble
5 | MGSDKIHHHHHHMKNKIGSFVIADPNKCTGCRACEVACFTMHNQHNNVGYTVGTVDIPVIPRLYLVKGDNFCMPIQCRHCEDAPCLNSCPQKAIVKENNIMSVNEEKCIGCKTCLLACPFGAIDLLPQYEDGKEVEQVILDENKKIAYKCDLCKDNEKIACISACPQKALKLVTPIDDKKAKNRQAALSLLLTNK | not soluble
6 | MTQKNESQRQDRVAAWSRHAESELSAYQSAAKLDLQAQKPRDHKLCASLEEAIRRSGLRDGMTVSFHHAFRGGDLTINLVMETIAKMGFKNLTLASSSLSDCHAPLVEHIRNGVVSRIYTSGLRGPLAEEISRGLLAEPVQIHSHGGRVHLVQSGELNIDVAFLGVPSCDEFGNANGYTGKACCGSLGYAMVDADSAKQVVMLTEQLLPYPHNPASIAQDQVDLIVQIEEVGDANKIGAGATRMTTNPRELLIARSAAEVIAHSGYFNEGFSLQTGTGGASLAVTRFLEDKMRSRNIVANFALGGITATMVDLHEKGLIRKLLDVQSFDRNAAQSLARNPNHIEISANQYANWGSKGASVDRLDVVVLSALEVDTHFNVNVLTGSDGVLRGASGGHCDTAVAAALSIIVAPLVRGRIPTLVDNVTTCVTPGSSVDILVTDHGIAVNPARPELAERLKAAGMKVVSIEWLRERAQLLTGQPRPIEFTDRVIAVVRYRDGSVIDVVHQVKE | not soluble
7 | MEQQNTLNDIKQTIVFNASIQKVWSVVSTAEGIASWFMPNDFVLEVGHEFHVQSPFGPSPCKVLEIDEPNHLSFSWDTDGWVVSFDLKDLGDNKTEFTLIHGGWKHPDEILPKANAKSSIIRDRMSGGWVAIVNEKLKKVVEG | soluble
8 | MHTVAVSGPPETGFRSVVCARRWLANPYAPGRPTVRCMNVDDHAEELASDLGVDKAEVKENLQNLVEYSVPLEEAKRSLRRKYGDDDGAPSGGPTAVDIADVDTDSGNVTVTATVLTAGKRSIRYQGDDHVIGEGELADETGRISYTAWEEFGLEPGDTVTIGNASVREWEGSPELNFGESATVTSADGDIEMAAEVGGDRDLAALSAGDRGRNVEAVVTEVEERTIDGRDGETEILSGVLGDETARLPFTDWDPHGEIEAGASVRIEDVYVREFRGVPSVNVSEFSTVERLDHEVEVGGPTRMAIRDAVARGGAYDVELVGSVIDIRDGSGLIKRCPDCGRVVQTGQCRQHGAVEAEDDLRVKAVLDDGTDSVTAILDRELTADVYGGTLADAREQAREAMDHSVVADTIAEDVVGREFRVRGHLSVDEYGANLETIAFAERDDDPAARAAAFLAEVDALEHHHHHH | not soluble
9 | SVDMQSLDEEDFSVSKSSDADAEFDIVIGNIEDIIMEDEFQHLQQSFMEKYYLEFDDSEENKLSYTPIFNEYIEILEKHLEQQLVERIPGFNMDAFTHSLKQHKDEVSGDILDMLLTFTDFMAFKEMFTDYRAEKEGRGLDLSTGLVVKSLNSSSASPLTPSMASQSI | not soluble
10 | MGHHHHHHSHMQEEEEESWSTSSDLTISISEDDLILESPEPQPNPGGKMEGEDGIEALKLIHAEQERVALSTEKNCILQTLSSPDSEKESSTNAPTREPGQTPDSDVPRAQVGQHVATLKEHDNSVKEEATALLRKALTEECGRRSAIHSSESSCSLPSILNDNSGIKEAKPAVWLNSVPTREQEVSSGCGDKSKKENVAADIPITETEAYQLLKKATLQDNTNQTENRFQKTDASVSHLSGLNIGSGAFETKTANKIASEASFSSSEGSPLSRHENKKKPVINLKSNALWDESDDSNSEIEAALRPRNHNTDDSDDFYD | soluble
11 | MTIIKLERRDVRLLLLYEFRLGHSAMEAERNICGAMGEGALSYNTAKSWFQKFKNGDFSLEEIERSGRPVELNEEDLVKLVEEEPRLSLREMEEKLECCHSTIPRHLGRLGFTSKLGTWVPHELSASQKLTRVNVCTQLLTFRRKFDWLNNLVTGDEKWVLYVNHSRKRQWLPIGEKGIPTPKPDLHPKKIMICV | soluble
12 | MGSDKIHHHHHHLNTRDFEYFLALTQTRNFSQTAEQFAVSQPTITTAIKRLEDSFQAQLIIRDRRHHDIGVTSAGKQLAAHAQVILQQLTLAQQEIAWDQTNKIRFGLPPIIGNYFFPKIAPQLIAAGLMPQLQTVEAGSAALLNQIKQGDLDFALLGASGPLQEPDLTISQIGTAPFVIITSESDPLAQKDKVRFAELAMQKFVTLSEAFVHTRAFTWFQQQSAFIPNVVYQTGDVQLLKQMVVQNVGIGFLTNLAINPDDHLAAVKLTDPKQPVFTISIVRRKDRVLTPAMQHFNQILAAN | not soluble
13 | MILMRTIDWNEESNSVVLVDQTLLPQEYKVIECKTLSSLCEAIQSLRIRGAPALGAAGGFGIALAAYLSGAKDIESMTKDLKVAAKALKSTRPTAVNLAWGVDRVLNAISDAFDFRGIRDIALQEARDIAEEDIETNKLIGKYGAKLLKDGDTVLTHCNAGRLACVDWGTALGVVRSAIADGKEIKVLACETRPLNQGSRITTWELMQDKIPVTLIADSMAGWAMRQGLVNSVLVGADRITQDVVFNKIGTYTHSILAREHEIPFYVAAPVSTFDFEGWEGSIKIEMRNPDELRFAGCQQLAPEDVPVYNPAFDATPMENVTALITERGVFYPPILLDEVLVLEHHHHHH | not soluble
14 | MQEVHDYGAYLILDEYGGVRAFLPWSEIASRAVRNIHAVLKPRQKVVVKVIRVYKKRGQVDVSLKRVMDSEKKRKMMFYKRYLKAATLVELIAEKLGKSVDEAYREVLWKLEDAYGDPMKGLEAAVLQGREALEKAGVPEEWIEPLLETAKTHVRVKTVKITFYLTLRSMAGDGVERVRKVLEAAKSQIESFKDSKVVARIYTVGAPKYRVELQGYNYKTLEKALEKMVEAARKTASKLGVEFSFERED | soluble
